# Laboratory results: the supplement of paper PMC9170038
# System: K4 kissing-loop RNA reporter
# Assay: apparent KD of K4 kissing-loop reporter; higher = weaker reporter binding
# Conditions: Eterna round: R107
# Protocol: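 RNA-MaP round R107: designed RNA switches with theophylline, tryptophan, arginine or FMN aptamers are transcribed on-chip within common flanks. They are titrated with a labelled K4 kissing-loop RNA reporter in RNA-MaP buffer (100 mM Tris pH 7.5, 80 mM KCl, 4 mM MgCl2), without ligand or with the indicated ligand. Median apparent KD per design.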
# [1] = input ligand: theophylline 20 uM
# [2] = input ligand: tryptophan 2.4 mM
# 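Note: bound reporter read as fluorescence of individual clusters on recovered sequencing chips by microscopy, with normalized cluster intensities fitted with a binding model.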
Sequence,apparent KD of K4 kissing-loop reporter (input ligand: FMN 200 uM),apparent KD of K4 kissing-loop reporter (input ligand: arginine 13.2 mM),apparent KD of K4 kissing-loop reporter (input ligand: none),apparent KD of K4 kissing-loop reporter [1],apparent KD of K4 kissing-loop reporter [2]
CCGGUUCCAACGCUGACUGAAGAACAUGAUACCAGUCGAGGACUCGACCCUUGGCAGCAUUAUAGAGUGAUGUUCGCUUCAGAAA [theeternabot_sameState_KL_Theo_A_15],157 nM,140 nM,189 nM,367 nM,117 nM
CCGUGGAGUGAUGUUCCACGUAAUACGGAUACCAGCUUUGCCAAAGGCCCUUGGCAGCCGCACGUUGCAGUGAUGUUGUGGCGCG [Same State Theophylline A G8],191 nM,143 nM,183 nM,162 nM,150 nM
CCGUGGCCGACGGCCGCCACUCUUACCAUCCAGCGGAGUGAUGUUCCGCCCGAGUGAUGUUCGGAGAGGACCGGGUCUGUUGUAA [Exclusion Tryptophan B GF30],117 nM,103 nM,108 nM,89.1 nM,98.9 nM
CCUAUCUCAUACGAUACCAGUCAAUGAUCUUUGAUCAAUGCCAUCACCGAGUGAUGUUCGGACCCUUGGCAGCGUAUGAGAUGGG [whbob_Ex_Theo_B_sa104],276 nM,203 nM,255 nM,376 nM,246 nM
CCUAUCUCAUACGAUACCAGUGAAUUUAUGUUUAUUAGCAGUGAUGUUGCGUUCCAAGUACACCCUUGGCAGCGUAUGGGAUAGG [Ex Theophylline B K4 24],139 nM,168 nM,147 nM,143 nM,113 nM
CCUAUCUCAUACGAUACCAGUGAUUAACCAGUGAUGUUGGAAUAACCAAGGAAUAUUUUUCACCCUUGGCAGCGUAUGGGAUAGG [Ex Theophylline B K4 26],78 nM,38 nM,59.1 nM,61.9 nM,49.6 nM
CCUAUCUGUUACGAUACCAGUCAAUGAUAUUUUAUCAAUGCCCUCACCGAGUGAUGUUCGGACCCUUGGCAGCGUCUGGGAUAGG [tyygpimullin],160 nM,148 nM,171 nM,153 nM,151 nM
CCUGCCAGCACGGCCGCCACUUCUAUUGUAUCUAUUUUUGUAAUCCUUUAGGAGUGAUGUUUUUAAAGGACCGGGUGAUGGCUGA [theeternabot_exclusion_KL_Trp_B_14],446 nM,248 nM,398 nM,356 nM,410 nM
CCUGGCGAGGUAACGUGGAUAUCUCGUCGCAAGGAUAUCUGGAAACAGAGAAGGUGCUACAUUACCGGCAGUGAUGUUGCUGACC,841 nM,336 nM,426 nM,455 nM,274 nM
CCUUCCCUUGAUAGUGAUGUUAUCAAGGACAAGGAUAUCAUCUCAAUGAGAAGGUGUCCUUGAUAACAUGGAGGUCUGAAACAGA [Omei KL FMN A Exc C v2],279 nM,125 nM,132 nM,128 nM,139 nM
CCUUCCGACACGGCCGCCACUAAUUUCAUCAGAUUGCCCGGAUUUCCAAGAUAGUGAUGUUGUACUAGGACCGGGUGUCAGGUCG [theeternabot_exclusion_KL_Trp_B_16],874 nM,680 nM,816 nM,760 nM,775 nM
CGAGUCCUGAGGAGUGAUGUUCCUCGGCCACGAGGACCGGUACGGCCGCCACUCGUUACUCGAGCUUAGUAGCUAGCACUAAGCC [Zaussora],189 nM,164 nM,179 nM,186 nM,109 nM
CGAGUGAUGUUCGAAGAGUUGUUAAGCGAUACCAGCCAGGAAACUGGCCCUUGGCAGCGUAAUAAAUAAAUAAAUAAAUGAUCAC [Theophylline A Exclusion; Euphoria Solution],425 nM,438 nM,472 nM,430 nM,372 nM
CGAUGGAUGGCAGGAUAUAGACAUUGAGUGAUGUUCGAUGAUUAUCCAUAUUCCCGUCACCUAAGACUAGAAGGGCCAUCCAUCG,554 nM,167 nM,205 nM,191 nM,198 nM
CGAUGUUCCUGGGAUACCAGUCGGAGUCUCAGAGCUCGGAGUGAUGUUCUGGGAUGUUUCGGCCCUUGGCAGCUCUGGGACUCCC [#2 Exclusion - Theophylline B Attempt #23 (HarryS)],843 nM,615 nM,818 nM,682 nM,722 nM
CGAUUUGCUUCAGCCUUAGUGAUGUUAAGGCGAGGACCGGUACGGCCGCCACUCGUAGGUUAUGUGCACGGCGGCGCUAAGGGCC [theeternabot_exclusion_KL_Trp_A_36],109 nM,107 nM,111 nM,120 nM,108 nM
CGCACACUUGUUGAUACCAGAAGCCGACCGGAAACAUCAUUGAGUGAUGUUCAAGCUGUUUUCCCUUGGCAGCAAACGAGUGGUC [theeternabot_exclusion_KL_Theo_B_22],150 nM,120 nM,138 nM,132 nM,138 nM
CGCAGUGAUGUUGCGAGUAGCUACAGGGAAGGAGCGCUUUAGUAAGCAGGUAGGUCGCCCACGCAGUGAUGUUGCGUCAUAGGGU [Exclusion Arginine A GF 19],118 nM,106 nM,108 nM,109 nM,88.4 nM
CGCAGUGAUGUUGCGAGUAGCUACAGGGAAGGAGCGUGCUAGAGCACAGGUAGGUCGCCCUCGGGCAGUGAUGUUGCCAAAGGUU [Exclusion ARginine A GF 16],77.1 nM,85.2 nM,79.8 nM,80.6 nM,68.3 nM
CGCCGCAAGGCGGUCCUGCCCACUCCGGAAGGAGCGCCCGCAAGGGCAGGUAGGUCGCCGGAGUGAUGUUCCGGUGGCAGGACCG [#2 Exclusion - Arginine A Attempt #4 (Inspired by Omei)],477 nM,112 nM,422 nM,264 nM,245 nM
CGCGACGUGGUCACGCCAGUCUCGUUAACCAAGGAUAUUGAGAAGACAAGAAGGUGGAUGUACCAUAGUGAUGUUGUGGUCAGUA [theeternabot_sameState_KL_FMN_A_17],416 nM,356 nM,465 nM,448 nM,388 nM

Sequence,apparent KD of K4 kissing-loop reporter (input ligand: FMN 200 uM),apparent KD of K4 kissing-loop reporter (input ligand: arginine 13.2 mM),apparent KD of K4 kissing-loop reporter (input ligand: none),apparent KD of K4 kissing-loop reporter [1],apparent KD of K4 kissing-loop reporter [2]
CGCGCGGGUUUGAGAGGGUUCGCGCGAAGUGAGGAUAUUUAGGGAGAAAGAAGGCACUAUAAAAUAUAGUGAUGUUAUAUAAGGG [SSFMNA.H],699 nM,93.9 nM,1110 nM,371 nM,342 nM
CGCGUUGGUUGAGAGGUUGGCGCGAAUGAUACCAGUAUAUAAGAAUACCCUUGGCAGCAUAAGAAAGAUAUAGUGAUGUUGUAUA [SSTheophA.I],469 nM,232 nM,454 nM,289 nM,420 nM
CGCUGGGCGAGUGAUGUUCGCUCACGUGAUACCAGUGCCAUCCAACACCCUUGGCAGCACGCGGGCAGUGAUGUUGUCCUUAGUG [Exclusion Theophylline A GF8],127 nM,123 nM,128 nM,125 nM,116 nM
CGCUUAGUGAUGUUUGAUUUGGCGCAUGCAGAGGAUAUAGGGUGCUUUAGAAGGCUGAGGAGUGCGCCGAGUGAUGUUCGGCGCU [Exclusion FMN A GF12],183 nM,141 nM,212 nM,162 nM,166 nM
CGGAGUGAUGUUCCGUUAAUUAAUUAUUUACGAGGACCGGUACGGCCGCCACUCGAUUUUGCUUUUAUUUAAUGUUUGGAAAUUU [JR_SSTryptoA_Sub006],135 nM,143 nM,142 nM,146 nM,101 nM
CGGAUGUAGUGAUGUUAUAUAAGAAGUAGACGAGGACCGGUACGGCCGCCACUCGAAACGGCUACUAGCGCGUUGCGAGGUGUGC [ExTryptoA.Ch],651 nM,681 nM,549 nM,688 nM,500 nM
CGGUACGUCGCAGGAUAUGGAUUCUGGAGUGAUGUUUCAGAGGCAUGCGGAAAACGCAUGCCGACUCCAGAAGGGCGACGUACCG,752 nM,85.8 nM,276 nM,24 nM,376 nM
CGUCGGUAGUGAUGUUGCCACGACGCUUUUAAGGAUAUAAGCUAAGUUAGAAGGUAAGAGAGUCAGCCCGGUGGCCUUAGAGUAG [theeternabot_exclusion_KL_FMN_A_17],257 nM,186 nM,195 nM,162 nM,151 nM
CGUGCCCAGCCGGAUACCAGUGACCCGCUGGGAACCGCGGGCCCAGAGUGAUGUUCGGGACACCCUUGGCAGCCGCCUGGGCGGC [#2 Same State - Theophylline B Attempt #12 (HarryS)],1380 nM,724 nM,462 nM,440 nM,1250 nM
CUAGCCGGGAAAGGAUAUACACACGCACAUAACGAGUGAUGUUCGUUAAUACCAACUUGGUUAACUGUAGAAGGUUCAUCGUCAC [theeternabot_sameState_KL_FMN_B_36],579 nM,576 nM,803 nM,793 nM,517 nM
CUAUGGAAACAUAGUGAGCGGGAAACCGAUACCAGUAUGGAAACAUACCCUUGGCAGCGGAAUGCUCAAACGGAGUGAUGUUCCG [Theophylline A K4 22],265 nM,216 nM,270 nM,235 nM,240 nM
CUGGGUUGACGAAAAGUCAACAAAUGAGAAGGAGCGCACGAAAGUGCAGGUAGGUCGCUCAAUCCAGUGAUGUUGGAUCAUCCAG [#SwitchBubble 12 #K4Late],571 nM,601 nM,649 nM,638 nM,472 nM
CUGUACAUCUCGGCCGCCACUGACAUGAGUGAUGUUCAUGUACAUGAGUGAUGUUCAUGUUCGGCCAGGACCGGGAGGUGUGCAG [KL-SSTryp-B2 #analogue #double KL],352 nM,184 nM,274 nM,271 nM,216 nM
CUUGAUGUGUCGGCCGCCACUGGUAUAGGCGGACUAUAACGACAUGAGUGAUGUUCAUGUUCGUCUAGGACCGGGACACAUUGUA [Tryp B SS t4],112 nM,97.4 nM,104 nM,100 nM,111 nM
GAAUUAUGUAGAAGGAGCGUUAGAAGGUAUAGGUGCGAGUGAUGUUUGGAUUUGUUAAUUUGACAGGUAGGUCGCUACAGAAGGA [KL-SSArg B18 #analogue],946 nM,259 nM,567 nM,205 nM,306 nM
GAAUUGACGAGUGAUGUUCGUCCACAAUACCGAGGACCGGUACGGCCGCCACUCGAGCAAUGUGAAUAGGGUCGCGUUUUGCAGU,294 nM,266 nM,295 nM,352 nM,187 nM
GACGGGUUGCUGCUCAAUCCGUCGCAUGAUCGAGGACCGGUACGGCCGCCACUCGAGGCCAUGCCGUACGAGUGAUGUUCGUGCG [Xeerlaus],387 nM,327 nM,324 nM,388 nM,190 nM
GACUGGAGUGAUGUUCCAUUAACGAUCCUACGAGGACCGGUACGGCCGCCACUCGAAAUGCAGUGAUGUUGCAGCCAGCCGUACU [Exclusion Trptophan A GF 8],157 nM,180 nM,162 nM,192 nM,142 nM
GAGAGCCCUGGAGGAUAUGAGUCUAGUGAUGUUAGGCGGUCCAUGCGCGUGGCGCGUUAUGCCCUUUUAGAAGGCCAGGGCUCUC [#2 Exclusion - FMN B Attempt #18 (HarryS)],109 nM,68.5 nM,88.5 nM,85.2 nM,89.7 nM
GAGAUAGAGGCGGCCGCCACUAGUGAUGUUAGUGAUGUUAGAUAGAGAAUAUAACAGGGAUUAGAUAGGACCGGGCCAGAUGGAG ['lljullin],116 nM,104 nM,130 nM,103 nM,100 nM
GAGCGGUAGAGGCUACCGCUAUUCUGAGAAGGAGCGCAGAUGACUGCAGGUAGGUCGCUUAGAGCUUGCAGUGAUGUUGCAAGUU [Inzarier],178 nM,176 nM,191 nM,181 nM,181 nM
